From US20140335192 come the findings set out here.

Common to all, as to test: ITC
Holding throughout (details): 250 uM protein into 40 uM siRNA, unit of K not stated

Data set [1] has as its system DRBD (double-stranded RNA binding domain).
In data set [2] the test system is DRBD-PTD chimera (RND-DRBD).
Data set [3] has as its system PTD (protein transduction domain peptide).

As to Luciferase siRNA, the Ka is 15200 in data set [1] (Sorensen's phosphate buffer, enthalpy 1998.83 kJ/mol); 10500 in data set [1] (deionized water, enthalpy 201.18 kJ/mol); 2.12e+07 in data set [2] (Sorensen's phosphate buffer, enthalpy 61.51 kJ/mol); 1e+10 in data set [2] (deionized water, enthalpy 98.92 kJ/mol); 1.04e+07 in data set [3] (Sorensen's phosphate buffer, enthalpy 14.03 kJ/mol); 1e+10 in data set [3] (deionized water, enthalpy 29.83 kJ/mol).
